According to article PMC5083789:

Biological target: Pure recombinant PlmA (Synechococcus elongatus PCC7942)
Test: SEC; 0.1 mg pure PlmA in 0.1 ml on Superdex 200 10/300 GL, 0.3 ml/min, 50 mM Hepes pH 7.5, 0.5 M NaCl, 1 mM 2-mercaptoethanol; calibrated with protein standards

Pure recombinant PlmA (natural protein)
stoichiometry N: 2
